Experimental data from article PMC10197516.

Target: SARS-CoV-2 spike-protein trimers
Test: SEC + other: negative-stain electron microscopy

Substance: SARS-CoV-2 spike-protein trimers
- stoichiometry N: 3
